{"source": "patent US20210395393A1", "about": "(EMSTOPA, published 2021)", "binders": {"B1": {"name": "TPAi-1 RHP/RKA Fab (Fab, V domains shown)", "VH": "QVQLVQSGAEVKKPGASVKVSCKASGNTSYWINWVRQATGQGLEWMGRIDPGGGSTGYAQKFQGRVTMTRDTSISTAYMELSSLRSEDTAVYYCASYYYAMAYWGQGTLVTVSS", "VL": "DVVMTQSPLSLPVTPGEPASISCRSSQSIVHSNGNTYLDWYLQKPGQSPQLLIYKVSNRASGVPDRFSGSGSGTDFTLKISRVEAEDVGVYYCFQGSHVPWTFGGGTKVEIK", "notes": "Recombinant Fab: RHP variable region in pHuG1_Fab vector with RKA in pHuK, expressed in Expi293 cells; also called TPAi-1 RHP/PKA Fab; humanised Fab"}, "B2": {"name": "TPAi-1 RHP/RKA (antibody, V domains shown)", "VH": "B1 VH", "VL": "B1 VL", "notes": "Human IgG1 kappa (pHuG1 / pHuK vectors); also called humanised TPAi-1 (RHP/RKA); humanized TPAi-1"}, "B3": {"name": "TPAi-1 RHP/RKA F(ab')2 (other)", "VH": "B1 VH", "VL": "B1 VL", "notes": "F(ab')2 made by pepsin digestion of TPAi-1 RHP/RKA IgG1 kappa and gel filtration"}, "B4": {"name": "TPAi-1 RHE/RKA (antibody, V domains shown)", "VH": "B1 VH with D71N", "VL": "B1 VL", "notes": "Human IgG1 kappa"}}, "key": {"[1]": {"target": "T1, recombinant human tPA (rh-tPA: abcam ab92637) (human, UniProt P00750 36-562)", "T1 sequence (P00750 36-562 limits assumed)": "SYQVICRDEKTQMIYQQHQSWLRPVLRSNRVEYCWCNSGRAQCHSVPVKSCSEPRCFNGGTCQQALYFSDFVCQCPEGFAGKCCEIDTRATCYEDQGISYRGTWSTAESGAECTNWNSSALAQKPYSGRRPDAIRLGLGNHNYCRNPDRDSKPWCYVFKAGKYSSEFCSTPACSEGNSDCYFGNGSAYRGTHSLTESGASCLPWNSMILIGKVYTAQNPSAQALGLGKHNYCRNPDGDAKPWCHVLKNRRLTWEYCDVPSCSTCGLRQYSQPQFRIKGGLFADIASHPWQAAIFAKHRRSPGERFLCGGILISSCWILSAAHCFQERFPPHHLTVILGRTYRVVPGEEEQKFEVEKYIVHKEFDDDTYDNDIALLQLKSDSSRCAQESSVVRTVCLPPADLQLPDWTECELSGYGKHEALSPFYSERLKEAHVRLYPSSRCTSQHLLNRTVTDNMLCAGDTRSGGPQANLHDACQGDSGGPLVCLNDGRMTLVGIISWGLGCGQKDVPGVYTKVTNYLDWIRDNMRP", "experiment": "cell-based or functional assay"}, "[2]": {"target": "T1, recombinant human tPA (rh-tPA: abcam …)", "experiment": "binding ELISA, plate coated with human tPA", "from_the_text": "(§1) Binding activity of the purified TPAi-1 RHP/RKA F(ab′)2 to the human tPA antigen was compared to that of the purified TPAi-1 RHP/RKA whole IgG1 antibody and RHP/RKA Fab in a binding ELISA. […] The EC50 values for the IgG1 and Fab are in agreement with those seen in earlier experiments. There is a consistent 4-fold difference in avidity between these two formats."}, "[3]": {"target": "T1, recombinant human tPA (rh-tPA: abcam …)", "experiment": "binding ELISA, plate coated with human tPA; reference TPAi-1 RHP/RKA IgG1", "from_the_text": "as §1"}, "[4]": {"target": "T1, recombinant human tPA (rh-tPA: abcam …)", "experiment": "binding ELISA, plate coated with human tPA; Fab as Expi293 conditioned medium", "from_the_text": "(§2) Binding activity of the TPAi-1 RHP/RKA Fab to the human tPA antigen was compared to that of the purified TPAi-1 RHP/RKA antibody in a binding ELISA. […] Following purification of TPAi-1 RHP/RKA Fab from a large scale culture, its binding to human tPA was reconfirmed by ELISA (FIG. 23). In this assay, plateauing of both binding curves was more apparent."}, "[5]": {"target": "T1, recombinant human tPA (rh-tPA: abcam …)", "experiment": "binding ELISA, plate coated with human tPA; reference TPAi-1 RHP/RKA Fab", "from_the_text": "as §2"}, "[6]": {"target": "T1, recombinant human tPA (rh-tPA: abcam …)", "experiment": "binding ELISA to human tPA after serum incubation", "experimental": "Purified samples of humanised antibodies TPAi-1 RHE/RKA and RHP/RKA were incubated in mouse, human and cynomolgus serum (4.10.1). The binding abilities of the antibodies after 29 days incubation were measured by binding ELISA to human tPA. For each antibody, one ELISA plate compared the binding of the 4° C. control sample to samples incubated at 37° C. in PBS and human serum. A second ELISA plate compared the binding of the 4° C. control sample to samples incubated at 37° C. in mouse and cynomolgus serum. […] Therefore the TPAi-1 RHE/RKA and RHP/RKA antibodies retained their binding capabilities on incubation in mouse, human and cynomolgus serum for 29 days."}}, "note": "Substitutions are numbered along the chain they refer to."}
{"binder": "B1", "values": [{"measurement": "inhibition of human plasma clot lysis (t-PA 1.5 nM, A405 nm turbidity)", "setting": "[1]", "value": "~2 fold (amount against TPAi-1 RHP/RKA)"}, {"measurement": "EC50", "setting": "[2]", "value": 1.68, "unit": "nM"}, {"measurement": "fold difference in avidity between IgG1 and Fab", "setting": "[3]", "value": 4, "unit": "fold"}, {"measurement": "EC50", "setting": "[4]", "value": 1.15, "unit": "nM"}]}
{"binder": "B2", "values": [{"measurement": "EC50", "setting": "[2]", "value": 0.475, "unit": "nM"}, {"measurement": "plateau A650 of the binding curve against the plateau of the Fab curve", "setting": "[5]", "value": "~1.4", "unit": "fold"}]}
{"binder": "B3", "values": [{"measurement": "EC50", "setting": "[2]", "value": 0.379, "unit": "nM"}]}
{"binder": "B4", "values": [{"measurement": "binding result", "setting": "[6]", "value": "binds"}]}
